Data on one molecule can be found in US20170145112A1 (Genentech, published 2017).

Bounds are passed on as bounds.

Assay [1] has as its target T1, Human complement Factor D, mature (human, UniProt P00746 27-253). Briefly: cell-based or functional assay.
Target sequence in this assay (P00746 27-253): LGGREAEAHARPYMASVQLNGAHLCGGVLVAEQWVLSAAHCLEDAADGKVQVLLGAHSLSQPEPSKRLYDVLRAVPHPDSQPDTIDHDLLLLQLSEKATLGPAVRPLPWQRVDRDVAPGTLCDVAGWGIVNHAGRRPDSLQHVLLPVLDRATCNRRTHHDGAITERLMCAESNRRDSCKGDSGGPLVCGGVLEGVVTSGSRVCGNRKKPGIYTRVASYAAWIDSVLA
The target of assay [2] is T1, Human complement Factor D, mature. Nature of the assay: SPR, at the limit of detection.
Target sequence in this assay (P00746 27-253): as above
Procedure: (§1) Kinetics and binding constant KD for Factor D binding to immobilized hu20D12 versions was determined by surface plasmon resonance (SPR) measurements on a Biacore®T200 instrument. […] After subtraction of the sensorgram observed for injection of running buffer, data were analyzed according to a 1:1 model using BiaEval software v4.1 (GE Healthcare) to extract the kinetics and affinity constants.
Assay [3] has the same target. Nature of the assay: SPR, Fab captured by anti-huFab, human Factor D injected. A general note: Surface plasmon resonance follows binding to a sensor surface in real time, without labels.
For assay [4] the target is unchanged. Nature of the assay: cell-based or functional assay. The source holds these as a separate data set.
The target in assay [5] is T2, Cynomolgus monkey complement Factor D (cynomolgus monkey, UniProt P00746 26-253 (human entry)).
T2 construct: also called cyfD; cFD
T2 chain: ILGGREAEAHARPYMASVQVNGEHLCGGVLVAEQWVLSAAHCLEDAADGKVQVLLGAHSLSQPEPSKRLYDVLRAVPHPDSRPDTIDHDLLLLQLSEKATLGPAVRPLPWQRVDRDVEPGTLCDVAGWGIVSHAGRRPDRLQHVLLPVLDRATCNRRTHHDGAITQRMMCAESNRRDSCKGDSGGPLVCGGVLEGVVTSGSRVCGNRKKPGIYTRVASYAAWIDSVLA
Briefly: SPR, cynomolgus monkey factor D.

Assay [6] deals with T1, Human complement Factor D, mature. Nature of the assay: SPR (Biacore T200): Fab captured with anti-huFab kit, human Factor D injected, 25 C, 1:1 model.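 Further: sensorgrams were corrected by subtracting a blank injection of running buffer before fitting kinetic and affinity constants.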
Target sequence in this assay (P00746 27-253): as the sequence (P00746 27-253) above
Procedure: as §1

B1: hu20D12.v2.1 Fab (Fab, V domains shown)
VH: EVQLVQSGAEVKKPGASVKVSCKASGYTFTSYYMYWVRQAPGQGLEWIGEINPTSGGTNFNEKFKSRATLTVDTSTSTAYLELSSLRSEDTAVYYCAREGGFAYWGQGTLVTVSS
VL: DIQMTQSPSSLSASVGDRVTITCKASQNVDTDVAWFQQKPGKAPKGLIRSASSRYSGVPSRFSGSGSGTDFTLTISSLQPEDFATYYCQQYNNYPLTFGQGTKVEIKR
As a reminder, the Kd is the constant that tells how readily two partners part at equilibrium. Usually koff stands for the first-order rate constant of dissociation. As a reminder, the kon is a measure of how fast the partners come together. For B1, the “IC50, TR-FRET assay of Factor D (50 pM) cleavage of factor B” value in assay [1] turned out to be 32 pM. Besides, the Kd in assay [2] was around 0.01 nM. Also, the “fold improvement in binding relative to hu20D12.v2.0” value in assay [3] is at least 4 fold. For the same molecule, in assay [4], the “FRET IC50 (TR-FRET assay of Factor D-dependent factor B activation), value 1 of 2 in the cell” value came out at 0.033 nM and the “FRET IC50 (TR-FRET assay of Factor D-dependent factor B activation), value 2 of 2 in the cell” value is 0.032 nM. For the same molecule, in assay [5], binding was put at a Kd of 0.017 nM, the “fold improvement of affinity relative to hu20D12.v2.0” value is around 10 fold and the “fold improvement of affinity relative to lampalizumab” value turned out to be 2 fold. In assay [6], this molecule gave a Kd below 0.01 nM, a koff of 8.1e-05 s⁻¹ and a kon of 1.2e+07 M⁻¹ s⁻¹.
